# Experiment: yeast display, Sf9 membrane polyspecificity reagent, FACS + sequencing; frameworks hold sequencing errors
# How it was run: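 A nanobody's polyreactivity label depends on the gate it was sorted from. Yeast display cells were stained with 10% biotinylated, detergent-solubilized Sf9 membrane reagent for 1 hour at 4 °C, enriched on streptavidin microbeads and sorted by FACS. The low and high (top ~1%) gates were set on anti-HA fluorescence for expression and streptavidin fluorescence for reagent binding.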
row,Sequence,polyreactivity (PSR sort gate)
1,QVQLVESGGGLVQAGGSLRLSCAASGSTFILNYMGWYRQAPGKERELVAAIDWGDSTTYYADSVKGRFTISRDNAKNTVYLQMNSLKPEDTAVYYCAADFAVSAFTRYPPTEYWGQGTQVTVSS,high polyreactivity
2,QVQLVESGGGLVQAGGSLRLSCAASGSTFIPNTMGWYRQEPGKERELVAAISRRGGSTNYADSVKGRFTISRDNAKYTVYLQMNSLKPEDTAVYYCAAVSPRRYRYDYWGQGTQVTVSS,low polyreactivity
3,QVQLVESGGGLVQAGGSLRLSCAASGSTFIRNAMGWYRQAPGKERELVAAISSSGGRTYYADSVKGRFTISRDNAKNTVYLQMNSLKPEDTAVYYCAARNARYVHTMEYWGQGTQVTVSS,high polyreactivity
4,QVQLVESGGGLVQAGGSLRLSCAASGSTFIRNAMGWYRQAPGKERELVAVISSGGSTYYADSVKGRFTISRDNAKNTVYLQMNSLKPEDTAVYYCAAGDPQKEDYWGQGTQVTVSS,low polyreactivity
5,QVQLVESGGGLVQAGGSLRLSCAASGSTFISNAMGWYRQAPGKEREFVAAITSSGGSTYYADSVKGRFTISRDNAKNSVYLQMNSLKPEDSAVYYCARDVWSPDYLYDYWGQGTQVTVSS,low polyreactivity
6,QVQLVESGGGLVQAGGSLRLSCAASGSTFISNAMGWYRQAPGKERELVAAITRRGGGTYYADSVKGRFTISRDNAMNTVYLQMNSLKPEDTAVYYCAARPWWRGYRFDYWGQGTQVTVSS,high polyreactivity
7,QVQLVESGGGLVQAGGSLRLSCAASGSTFISYAMGWSRQAPGKERELVAAISRNGGRTYYADSVKGRFTISRDNAKNTVYLQMNSLKPEDTAVYYCAAAYNSYRFDYWGQGTQVTVSS,high polyreactivity
8,QVQLVESGGGLVQAGGSLRLSCAASGSTFISYAMGWYRQAPGKEREWVAAISRRGDSTYYADSVKGRFTISRDNAKNTVYLQMKSLKPEDTAVYYCAADVSGDKGSIHMNYWGQGTQVTVSS,low polyreactivity
9,QVQLVESGGGLVQAGGSLRLSCAASGSTFITYAMGWYRQAPGKERELVAAIRFSGDTTYADSVKGRFTISRDNAKNTVNLQLNCLKPEDTAVYYCAVVLYRYDGRKYWRDYWGQGTQVTVSS,high polyreactivity
10,QVQLVESGGGLVQAGGSLRLSCAASGSTFIYNAMGWYRLAPGKEREFVAGITGSGGSTYYADSVKGRFTISRDNAKNTVYLQMNSLKPEDTAVNYCNADSPVVNYADLDYWGQGTQVSVSS,low polyreactivity
11,QVQLVESGGGLVQAGGSLRLSCAASGSTFIYYTMGWYRQAPGKERELVAAINGGGGSTYYADSVKGRFTISRDNAKNTVYLQMTSLKPEDTAVYYCATDPWHRAWGYGWGYNYWGQGTQVTVSS,low polyreactivity
12,QVQLVESGGGLVQAGGSLRLSCAASGSTFIYYTMVWYRQAPGKERELVAAIPSSGGSTYYADSVKGRFTISRDNAKNTVYLQMNSLKPEDNAVYYCAADGTYIKFAKLYRSYDYWGQVTQVTVSS,low polyreactivity
13,QVQLVESGGGLVQAGGSLRLSCAASGSTFKIYAMGWYRQAPGKERELVARITGRGGSTYYADSVKGRFTISRDNAKNTVYLQMNSLKPEDTAVYYCAREWYQYSPYHRFDYWGQGTQVTVSS,high polyreactivity
14,QVQLVESGGGLVQAGGSLRLSCAASGSTFKKYAMGWYRQAPGKERELVATISKNGGSTYYADSVNGRFTISRDNAKNTVYLQMNSLKPEDTAVYYCATRWWYYRTWYDYWGQGTQVTVSS,high polyreactivity
15,QVQLVESGGGLVQAGGSLRLSCAASGSTFKPNAMGWYRQAPGKERELVAAISGSGGSTYYADSVKGRFTISRDNAKNTVYLQMNSLKPEDTAVYYCAAYVYTIFSWYDYWGQGTQVTVSS,high polyreactivity
16,QVQLVESGGGLVQAGGSLRLSCAASGSTFKPYAMGWYRQAPGKERELVAAISKSGGSTRYADSVKGRFTISRDNAKNTVYLQMNSLKPEDTAVYYCAADYIYVKYEYWGQGTQVTVSS,high polyreactivity
17,QVQLVESGGGLVQAGGSLRLSCAASGSTFKPYAMGWYRQAPGKERELVAAISRGTRTYADSVKGRFTITRDNAKNTVYLQMNSLKPEDTAVYYCAAEWRWIFGYHYEYDYWGQGTQVTVSS,low polyreactivity
18,QVQLVESGGGLVQAGGSLRLSCAASGSTFKPYAMGWYRQAPGKERELVADISGRGGSTYYADSVKGRFTISRDNAKKTVYLQMNSLKPEDTAVFYCATYSSRQRKSSYYYWGQGTHVTVSS,high polyreactivity
19,QVQLVESGGGLVQAGGSLRLSCAASGSTFKRYAMGWYRQAPGKERELVAAISTRGSTYYADSVKGRFTISRDNAKNTVYFQMNSLKPEDTAVYYCIARQALVWKWYWYSPGYDYWGQGTQVTVSS,low polyreactivity
20,QVQLVESGGGLVQAGGSLRLSCAASGSTFKRYAMGWYRQAPGKEWELVAAISASGGSTSYADSVKGRFTISRDKAKNTVYLQMNSLIPEDTAVYYCARDRFRSRLDYWGQGTQVTVSS,high polyreactivity
21,QVQLVESGGGLVQAGGSLRLSCAASGSTFKSYTMGWYRQAPGKERELVAAISGSGGRTYYADSVKGRFTISRDNAKNTVYLQMNSLKPEDTAVYYCAATGPYGFYWGQGTQVTVSS,high polyreactivity

row,Sequence,polyreactivity (PSR sort gate)
1,QVQLVESGGGLVQAGGSLRLSCAASGSTFKTYAMGWYRQAPGKEREFVASISGSGGSTRYADSVKGRFTISRDNAKNTVYLQMNSLKPEDTAVYYCAARLQKPTNGKGVYYWGQGTQVTVSS,high polyreactivity
2,QVQLVESGGGLVQAGGSLRLSCAASGSTFKVYAMGWYRQAPGKERELVATISKSGSTYADSVKGRFTISRDNAKNTVYLQMNCLKPEDTAVYYCAADLYTYPRTRRRAYGYWGQGTQVTVSS,high polyreactivity
3,QVQLVESGGGLVQAGGSLRLSCAASGSTFKWNAMGWYRQAPGKERELVAAINSGGSTYYADSVKGRFTISRDNAKNTVYLQMNSLKPEDTAVYYCAKKWAVRTPFRYGIRYDYWGQGTQVTVSS,low polyreactivity
4,QVQLVESGGGLVQAGGSLRLSCAASGSTFKWYAMGWYRQAPGKERELVAAINWSSGRTYYADSVKGRFTISRDNAKNTVYLQMNSLKPEDTAVYYCAAEAGYFSWRTMDYWGQGTQVTVSS,high polyreactivity
5,QVQLVESGGGLVQAGGSLRLSCAASGSTFKYYAMGWYRQAPGKERELVASISRGGSTNYADSVKGRFTISRDNAKNTVYLQMNSLKPEDTAVYYCAKRRAGTAYDYWGQGTQVTVSS,high polyreactivity
6,QVQLVESGGGLVQAGGSLRLSCAASGSTFLDNAMGWYIQAPGKERELVAAITQSGSSTYYPDSVKGRFTISRDTAKNTVYLQMNSLKPEATAVYYCAADVPNISFDYWGQGTQVTVSS,low polyreactivity
7,QVQLVESGGGLVQAGGSLRLSCAASGSTFLDNAMGWYRQAPGKERELVAAISSDGSTYYANSVKGRFTISRDNAKNTVYIQMNSLKPEDTAVYYCAAEYRYYGFWYDYWGQGTQVTVSS,high polyreactivity
8,QVQLVESGGGLVQAGGSLRLSCAASGSTFLDYAMGWYRQAPGNERELVAAISPDDSSTYYADSVKARFTISRDKAKNTVSLHMTSLKPEDTAVYYFAADDRDWVNYDYWGQGTQVTVSS,low polyreactivity
9,QVQLVESGGGLVQAGGSLRLSCAASGSTFLDYDMGWYRQAPGKERELVATINSVGSTYYADSVKGRFTISRDNAKNTVYLQMKSLKPEDTAVYYCAASQEPGWYPDVWWEYDYWGQGTQVTVSS,low polyreactivity
10,QVQLVESGGGLVQAGGSLRLSCAASGSTFLGNAMGWYRQAPGKERELVAGITSGGTTNYADSVKGRFTISRDNAKNTVYLQMNSLKPEDTAVYYCNADVWIGQRFDPGYDFDYWGQGTQVTVSS,low polyreactivity
11,QVQLVESGGGLVQAGGSLRLSCAASGSTFLGYAMGWSRQAPGKERELVAAINLSTSGTYYADSVKGRFTISRDNAKNTVYLQMNSLKPEDTAVYYCAAAYSNINYYYQYYYWGQGTQVTVSS,low polyreactivity
12,QVQLVESGGGLVQAGGSLRLSCAASGSTFLHYAMGWYRQAPGKERELVAAISFSGVRTYYADSVKGRFTISRDNAKNTVYLQMNSLKPEDTAVYYCAADGHHADYDYWGQGTQVTVSS,low polyreactivity
13,QVQLVESGGGLVQAGGSLRLSCAASGSTFLHYAMGWYRQAPGKERELVATITSGDSTSYADSVKGRFTISRDNAKNTVYLQMNSLKPEDTAVYYCTANRVHRSASPYDYWGQGTQVTVSS,low polyreactivity
14,QVQLVESGGGLVQAGGSLRLSCAASGSTFLINAMGWYRQAPGKERELVAAISRDGSTNYADSVKGRFTISRDNAKNTVYLQMNSLKPEDTAVYYCAAVPGISVGRQPGYDYDYWGQGTQVTVSS,low polyreactivity
15,QVQLVESGGGLVQAGGSLRLSCAASGSTFLLNAMGWYRPAPGKERELVAAITWTGGSTYYADSVKGRFTISRDNAKNTVYLQMNILKPEDTAVYYCAAEHYEYWRELVTSEYDYWGKGTQVTVSS,low polyreactivity
16,QVQLVESGGGLVQAGGSLRLSCAASGSTFLNYAMGWYRQAPGKERELVAAISFSGGRTYYADSVKGRFTISRDNAKNTVFLQMNSLKPEDTAVYYCAARGSYAYYRGQGTQVTVSS,high polyreactivity
17,QVQLVESGGGLVQAGGSLRLSCAASGSTFLNYAMGWYRQAPGKERELVASISYSAGSTYYADSVKGRFTISRDNAKNTVYLQMNSLKPEDTAVYYCAARLARAGYWRRNYYYWGQGTQVTVSS,high polyreactivity
18,QVQLVESGGGLVQAGGSLRLSCAASGSTFLPNAMGWYRQAPGKERELVARISYSGGNTYYADSVKGRFTISRDNAKNTVYLQMNSLKPEDTAVYYCAAVGWYHDYYWGQGTQVTVSS,high polyreactivity
19,QVQLVESGGGLVQAGGSLRLSCAASGSTFLPNAMGWYRQPPGKERELVAAITNSGGNTYADSVKGRFTISRDNAKNTVYLQMNSLKPEDTAVYYCNARFSPTGWARGNDYWGQGTQVTVSS,low polyreactivity
20,QVQLVESGGGLVQAGGSLRLSCAASGSTFLPYALGWYRQAPGKERELVAAIDWNGGRTYYADSVKGRFTISRDNAKNTVYLQMNSLKPEDTAVYYCAKLGRAAQGNYYWGQGTQVTVSS,high polyreactivity
